The source of these data is patent US20150111251A1 (AbbVie / Abbott, published 2015).

Changes are numbered by the printed parent chain.

The chains are these.
B1: AB353 (antibody, V domains shown)
VH: EVQLVQSGSELKKPGASVKVSCKASGYTFTNYGMNWVRQAPGQGLEWMGWINTYTGEPTYADDFKGRFVFSLDTSVSTAYLQISSLKAEDTAVYYCARKFLTTVVVTDYAMDYWGQGTTVTVSS
VL: DIQMTQSPSSLSASVGDRVTITCRASQDISNYLNWYQQKPGKAPKLLIYYTSRLQSGVPSRFSGSGSGTDYTLTISSLQPEDFATYYCQQGNTLPPTFGQGTKLEIK
notes: Full-length humanized antibody made in HEK 293-6E; also called hMAK199VH.1/hMAK199VL.1b
B2: AB356 (antibody, V domains shown)
VH: B1 VH
VL: DIVMTQSPAFLSVTPGEKVTITCRASQDISNYLNWYQQKPDQAPKLLIYYTSRLQSGVPSRFSGSGSGTDYTFTISSLEAEDAATYYCQQGNTLPPTFGQGTKLEIK
notes: Full-length humanized antibody made in HEK 293-6E; also called hMAK199VH.1/hMAK199VL.2b
B3: AB363 (antibody, V domains shown)
VH: B1 VH with Y95F
VL: B1 VL with Y71F
notes: Full-length humanized antibody made in HEK 293-6E; also called hMAK199VH.1b/hMAK199VL.1
B4: AB351 (antibody, V domains shown)
VH: B1 VH
VL: B1 VL with Y71F
notes: Full-length humanized antibody made in HEK 293-6E; also called hMAK199VH.1/hMAK199VL.1
B5: AB364 (antibody, V domains shown)
VH: B1 VH with Y95F
VL: B1 VL with A43T, P44V, Y87F
notes: Full-length humanized antibody made in HEK 293-6E; also called hMAK199VH.1b/hMAK199VL.1a
B6: AB359 (antibody, V domains shown)
VH: B1 VH with V2I, Y95F
VL: B1 VL
notes: Full-length humanized antibody made in HEK 293-6E; also called hMAK199VH.1a/hMAK199VL.1b
B7: AB358 (antibody, V domains shown)
VH: B1 VH with V2I, Y95F
VL: B1 VL with A43T, P44V, Y87F
notes: Full-length humanized antibody made in HEK 293-6E; also called hMAK199VH.1a/hMAK199VL.1a
B8: AB367 (antibody, V domains shown)
VH: B1 VH with Y95F
VL: B2 VL with A43T, P44V, Y87F
notes: Full-length humanized antibody made in HEK 293-6E; also called hMAK199VH.1b/hMAK199VL.2a
B9: AB361 (antibody, V domains shown)
VH: B1 VH with V2I, Y95F
VL: B2 VL with A43T, P44V, Y87F
notes: Full-length humanized antibody made in HEK 293-6E; also called hMAK199VH.1a/hMAK199VL.2a
B10: AB377 (antibody, V domains shown)
VH: EIQLVQSGAEVKKPGASVKVSCKASGYTFTNYGMNWVRQAPGQGLEWMGWINTYTGEPTYADDFKGRFTFTLDTSTSTAYMELSSLRSEDTAVYFCARKFLTTVVVTDYAMDYWGQGTTVTVSS
VL: B1 VL
notes: Full-length humanized antibody made in HEK 293-6E; also called hMAK199VH.2a/hMAK199VL.1b
B11: AB362 (antibody, V domains shown)
VH: B1 VH with V2I, Y95F
VL: B2 VL
notes: Full-length humanized antibody made in HEK 293-6E; also called hMAK199VH.1a/hMAK199VL.2b
B12: AB355 (antibody, V domains shown)
VH: B1 VH
VL: B2 VL with A43T, P44V, Y87F
notes: Full-length humanized antibody made in HEK 293-6E; also called hMAK199VH.1/hMAK199VL.2a
B13: AB368 (antibody, V domains shown)
VH: B1 VH with Y95F
VL: B2 VL
notes: Full-length humanized antibody made in HEK 293-6E; also called hMAK199VH.1b/hMAK199VL.2b
B14: AB365 (antibody, V domains shown)
VH: B1 VH with Y95F
VL: B1 VL
notes: Full-length humanized antibody made in HEK 293-6E; also called hMAK199VH.1b/hMAK199VL.1b
B15: AB357 (antibody, V domains shown)
VH: B1 VH with V2I, Y95F
VL: B1 VL with Y71F
notes: Full-length humanized antibody made in HEK 293-6E; also called hMAK199VH.1a/hMAK199VL.1
B16: AB352 (antibody, V domains shown)
VH: B1 VH
VL: B1 VL with A43T, P44V, Y87F
notes: Full-length humanized antibody made in HEK 293-6E; also called hMAK199VH.1/hMAK199VL.1a
B17: AB384 (antibody, V domains shown)
VH: B10 VH with F68V, L72T, F95Y
VL: B2 VL with I2V, Y49K, Y71F
notes: Full-length humanized antibody made in HEK 293-6E; also called hMAK199VH.2b/hMAK199VL.2
B18: AB372 (antibody, V domains shown)
VH: B10 VH with I2V, F68V, F70M, L72T, F95Y
VL: B2 VL with I2V, Y49K, Y71F
notes: Full-length humanized antibody made in HEK 293-6E; also called hMAK199VH.2/hMAK199VL.2
B19: AB378 (antibody, V domains shown)
VH: B10 VH
VL: B2 VL with I2V, Y49K, Y71F
notes: Full-length humanized antibody made in HEK 293-6E; also called hMAK199VH.2a/hMAK199VL.2
B20: AB354 (antibody, V domains shown)
VH: B1 VH
VL: B2 VL with I2V, Y49K, Y71F
notes: Full-length humanized antibody made in HEK 293-6E; also called hMAK199VH.1/hMAK199VL.2
B21: AB366 (antibody, V domains shown)
VH: B1 VH with Y95F
VL: B2 VL with I2V, Y49K, Y71F
notes: Full-length humanized antibody made in HEK 293-6E; also called hMAK199VH.1b/hMAK199VL.2
B22: AB360 (antibody, V domains shown)
VH: B1 VH with V2I, Y95F
VL: B2 VL with I2V, Y49K, Y71F
notes: Full-length humanized antibody made in HEK 293-6E; also called hMAK199VH.1a/hMAK199VL.2

For the first assay, the target named is T1, Recombinant Human TNF-α/TNFSF1A (human, UniProt P01375 77-233). As to the kind of experiment: cell-based or functional assay.
T1 sequence (P01375 77-233 limits assumed): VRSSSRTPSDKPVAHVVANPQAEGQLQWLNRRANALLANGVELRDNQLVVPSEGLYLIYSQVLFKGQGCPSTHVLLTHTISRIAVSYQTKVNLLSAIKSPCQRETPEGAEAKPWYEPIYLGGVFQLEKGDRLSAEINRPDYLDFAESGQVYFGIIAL
B1: the “TNFα Neutralization Assay IC50 nM (L929 cells)” value is 0.66 nM.
Same read-out and setting: in the case of B2 it was 0.87 nM; in that of B3, 0.32 nM; in that of B4, 1.06 nM.
On the same count and under the same terms, in the case of B5 it was 0.35 nM; in that of B6, 3.78 nM.
On to B7, for which the “TNFα Neutralization Assay IC50 nM (L929 cells)” value came out at 0.21 nM.
B8: the “TNFα Neutralization Assay IC50 nM (L929 cells)” value came out at 0.53 nM.
With B9, the “TNFα Neutralization Assay IC50 nM (L929 cells)” value amounted to 0.82 nM.
For B10, the “TNFα Neutralization Assay IC50 nM (L929 cells)” value was above 20 nM.
The same measure, in the same setting: the same measure for B11: 2.11 nM; for B12: 1.9 nM; for B13: 1.09 nM.
With B14, the “TNFα Neutralization Assay IC50 nM (L929 cells)” value worked out at 1.52 nM.
For the molecule B15, the “TNFα Neutralization Assay IC50 nM (L929 cells)” value was determined as 1.94 nM.
Same read-out and setting: the same measure for B16: 0.35 nM.

The target in a further assay is T1, Recombinant Human TNF-α/TNFSF1A. The assay is described as follows: SPR (BIACORE), antibody captured, TNFα in solution. The method, then:
The BIACORE assay (Biacore, Inc, Piscataway, N.J.) determines the affinity of antibodies with kinetic measurements of on-rate and off-rate constants. Binding of antibodies to a target antigen (for example, a purified recombinant target antigen) is determined by surface plasmon resonance-based measurements with a Biacore® 1000 or 3000 instrument (Biacore® AB, Uppsala, Sweden) using running HBS-EP (10 mM HEPES [pH 7.4], 150 mM NaCl, 3 mM EDTA, and 0.005% surfactant P20) at 25° C. All chemicals are obtained from Biacore® AB (Uppsala, Sweden) or otherwise from a different source as described. For example, approximately 5000 RU of goat anti-mouse IgG, (Fcγ), fragment specific polyclonal antibody (Pierce Biotechnology Inc, Rockford, Ill.) diluted in 10 mM sodium acetate (pH 4.5) is directly immobilized across a CM5 research grade biosensor chip using a standard amine coupling kit according to manufacturer's instructions and procedures at 25 μg/ml. Unreacted moieties on the biosensor surface are blocked with ethanolamine. Modified carboxymethyl dextran surface in flowcell 2 and 4 is used as a reaction surface. Unmodified carboxymethyl dextran without goat anti-mouse IgG in flow cell 1 and 3 is used as the reference surface. For kinetic analysis, rate equations derived from the 1:1 Langmuir binding model are fitted simultaneously to association and dissociation phases of all eight injections (using global fit analysis) with the use of Biaevaluation 4.0.1 software. Purified antibodies are diluted in HEPES-buffered saline for capture across goat anti-mouse IgG specific reaction surfaces. Antibodies to be captured as a ligand (25 μg/ml) are injected over reaction matrices at a flow rate of 5 μl/minute. The association and dissociation rate constants, kₒₙ (M⁻¹ s⁻¹) and koff (s⁻¹), are determined under a continuous flow rate of 25 μl/minute. Rate constants are derived by making kinetic binding measurements at different antigen concentrations ranging from 10-200 nM. The equilibrium dissociation constant (M) of the reaction between antibodies and the target antigen is then calculated from the kinetic rate constants by the following formula: KD=koff/kₒₙ. Binding is recorded as a function of time and kinetic rate constants are calculated. In this assay, on-rates as fast as 10⁶ M⁻¹ s⁻¹ and off-rates as slow as 10⁻⁶ s⁻¹ can be measured.
On the technique in general: SPR reads the build-up and loss of mass on a sensor chip optically.
As for B17, the Kd – broadly, the constant that tells how readily two partners part at equilibrium – is 2.1 nM; the dissociation rate constant (koff) (commonly the rate constant with which the complex falls apart) worked out at 0.0014 s⁻¹; the kon (commonly the second-order rate constant of association) worked out at 660000 M⁻¹ s⁻¹.
The corresponding values for B18 are 1.2 nM, 0.0011 s⁻¹ and 950000 M⁻¹ s⁻¹.
As to B19, the Kd amounted to 1.4 nM, the koff was 0.0013 s⁻¹ and the kon stood at 880000 M⁻¹ s⁻¹.
The corresponding values for B1 are 0.46 nM, 0.00092 s⁻¹ and 2e+06 M⁻¹ s⁻¹.
For B2 the same measures were 0.67 nM, 0.00089 s⁻¹ and 1.3e+06 M⁻¹ s⁻¹.
The corresponding values for B20 are 0.52 nM, 0.001 s⁻¹ and 2e+06 M⁻¹ s⁻¹.
With B3, the Kd worked out at 0.86 nM, the koff amounted to 0.0012 s⁻¹ and the kon came out at 1.4e+06 M⁻¹ s⁻¹.
Regarding B4, the koff came to 0.00068 s⁻¹ and the kon came to 2e+06 M⁻¹ s⁻¹.
Turning to B21, the Kd stood at 0.93 nM, the koff turned out to be 0.0015 s⁻¹ and the on-rate (kon) worked out at 1.6e+06 M⁻¹ s⁻¹.
For B5 the same measures were 0.89 nM, 0.0011 s⁻¹ and 1.2e+06 M⁻¹ s⁻¹.
For the molecule B6, the Kd is 0.73 nM, the koff was 0.00093 s⁻¹ and the kon was found to be 1.3e+06 M⁻¹ s⁻¹.
For B7 the same measures were 0.7 nM, 0.00097 s⁻¹ and 1.4e+06 M⁻¹ s⁻¹.
For B8 the same measures were 1 nM, 0.001 s⁻¹ and 1e+06 M⁻¹ s⁻¹.
For B9 the same measures were 0.79 nM, 0.00098 s⁻¹ and 1.2e+06 M⁻¹ s⁻¹.
Consider B10, for which the Kd was 1.4 nM, the off-rate (koff) is 0.0015 s⁻¹ and the kon amounted to 1.1e+06 M⁻¹ s⁻¹.
On to B11, for which the dissociation constant (Kd) was determined as 0.83 nM, the koff stood at 0.0011 s⁻¹ and the kon turned out to be 1.3e+06 M⁻¹ s⁻¹.
For B22 the same measures were 0.78 nM, 0.00097 s⁻¹ and 1.2e+06 M⁻¹ s⁻¹.
Take B12: the Kd came to 0.59 nM, the off-rate (koff) is 0.0014 s⁻¹ and the on-rate (kon) turned out to be 2.4e+06 M⁻¹ s⁻¹.
On to B13, for which the Kd was 1 nM, the off-rate (koff) is 0.0011 s⁻¹ and the association rate constant (kon) amounted to 1.1e+06 M⁻¹ s⁻¹.
For B14 the same measures were 0.91 nM, 0.001 s⁻¹ and 1.1e+06 M⁻¹ s⁻¹.
Regarding B15, the Kd worked out at 0.67 nM, the koff was 0.0013 s⁻¹ and the on-rate (kon) was determined as 1.9e+06 M⁻¹ s⁻¹.
The corresponding values for B16 are 0.45 nM, 0.00094 s⁻¹ and 2.1e+06 M⁻¹ s⁻¹.
